Measured values published in paper PMC10294715, “Single-cell RNA-seq uncovers dynamic processes orchestrated by RNA-binding protein DDX43 in chromatin remodeling during spermiogenesis”.

Target: DDX43-KI (Mus musculus, UniProt D3Z6P9 1-646, E395Q)
Assay: EMSA; EMSA: 10 nM biotin-RNA, 50 mM Tris-HCl pH 7.5, 100 mM KCl, 2.5% glycerol, 0.05% NP-40, 4 mM EDTA, 1 mM DTT, RiboLock 2 U, 37 C 30 min; 8% native TBE PAGE at 4 C; G4 folded in 50 mM Tris-HCl pH 7.5, 150 mM KCl, 0.1 mM EDTA
Settings: protein: recombinant; tags: His tag (Ni-NTA, pET28a); label: 3' biotin; single strand

Chain of DDX43-KI (D3Z6P9 entry or part of it E395Q): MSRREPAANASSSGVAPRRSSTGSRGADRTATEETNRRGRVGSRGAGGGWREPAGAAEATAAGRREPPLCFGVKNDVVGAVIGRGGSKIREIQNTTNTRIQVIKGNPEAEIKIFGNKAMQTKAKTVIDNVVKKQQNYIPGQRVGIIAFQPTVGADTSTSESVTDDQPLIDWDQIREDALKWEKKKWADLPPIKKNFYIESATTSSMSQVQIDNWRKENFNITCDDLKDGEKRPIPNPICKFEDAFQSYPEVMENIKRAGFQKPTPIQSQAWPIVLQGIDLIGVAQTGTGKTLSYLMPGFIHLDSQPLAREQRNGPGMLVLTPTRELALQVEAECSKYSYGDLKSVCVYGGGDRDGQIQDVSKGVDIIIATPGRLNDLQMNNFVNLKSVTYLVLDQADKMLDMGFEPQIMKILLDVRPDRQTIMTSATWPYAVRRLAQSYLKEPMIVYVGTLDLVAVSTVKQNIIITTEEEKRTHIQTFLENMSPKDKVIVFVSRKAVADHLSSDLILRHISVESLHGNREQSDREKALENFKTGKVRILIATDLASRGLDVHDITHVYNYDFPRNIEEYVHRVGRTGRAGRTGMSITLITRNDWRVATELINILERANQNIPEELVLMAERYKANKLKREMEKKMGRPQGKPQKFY

Binder: ACCGCUGCCGUCGCUCCG (ssRNA) [ssRNA]
- binding result: no binding
